In patent US20140087995A1 (published 2014):
Numbered stars: 1 amine (or outer) side, 2 acyl side, 3 side chain; on linkers, the order of the positions; unused ones are H or OH. Bridge positions count the residues as written; N and C are the ends. Side chains are listed from the residue outwards. Ends that are not written are not given here. * marks the point of attachment. C20 diacid = O=C(O)CCCCCCCCCCCCCCCCCCC(=O)*; γGlu = O=C(O)[C@H](CCC(=O)[*:2])N[*:1]; AEEA = NCCOCCOCC(=O)O

T1: human calcitonin receptor (human, UniProt P30988 25-474)
T1 sequence (looked up): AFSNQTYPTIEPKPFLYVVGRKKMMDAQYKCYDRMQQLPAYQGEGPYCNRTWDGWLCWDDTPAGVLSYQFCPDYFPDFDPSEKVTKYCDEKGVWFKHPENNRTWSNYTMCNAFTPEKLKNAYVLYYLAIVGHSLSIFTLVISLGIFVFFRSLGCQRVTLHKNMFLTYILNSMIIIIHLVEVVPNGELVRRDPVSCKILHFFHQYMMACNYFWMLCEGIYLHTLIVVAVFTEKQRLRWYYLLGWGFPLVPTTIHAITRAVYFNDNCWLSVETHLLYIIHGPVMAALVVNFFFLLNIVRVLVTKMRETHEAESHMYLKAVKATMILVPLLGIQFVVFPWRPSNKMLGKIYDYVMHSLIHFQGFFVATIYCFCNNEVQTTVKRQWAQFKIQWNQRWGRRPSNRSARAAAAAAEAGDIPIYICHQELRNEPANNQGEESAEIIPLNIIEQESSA

T2: human amylin 3(a) receptor (human calcitonin receptor co-expressed with RAMP-3) (human, UniProt P30988 25-474; O60896 24-148, limits assumed)
T2 sequence (looked up) 1: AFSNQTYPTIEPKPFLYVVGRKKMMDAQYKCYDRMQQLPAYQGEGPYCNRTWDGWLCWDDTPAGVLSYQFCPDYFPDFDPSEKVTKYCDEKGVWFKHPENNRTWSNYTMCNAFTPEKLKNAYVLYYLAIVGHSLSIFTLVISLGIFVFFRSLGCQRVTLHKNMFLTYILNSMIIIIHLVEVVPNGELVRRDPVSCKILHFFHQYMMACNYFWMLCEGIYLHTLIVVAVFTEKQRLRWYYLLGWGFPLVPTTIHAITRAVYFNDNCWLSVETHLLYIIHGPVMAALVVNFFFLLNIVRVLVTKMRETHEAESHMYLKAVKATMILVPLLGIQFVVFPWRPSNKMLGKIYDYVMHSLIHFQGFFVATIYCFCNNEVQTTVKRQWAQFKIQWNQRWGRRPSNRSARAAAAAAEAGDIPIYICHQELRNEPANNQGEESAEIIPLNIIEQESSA
T2 sequence (looked up) 2: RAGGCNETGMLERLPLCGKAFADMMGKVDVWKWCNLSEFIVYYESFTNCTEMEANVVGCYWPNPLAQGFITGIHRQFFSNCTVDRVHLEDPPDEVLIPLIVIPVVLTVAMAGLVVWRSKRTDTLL

B1: N^ε1-[(4S)-4-carboxy-4-[[(4S)-4-carboxy-4-(19-carboxynonadecanoylamino)butanoyl]amino]butanoyl]-[Glu14,Arg17,Pro21,Pro27,His34]-h-amylin (peptide)
peptide: K([γGlu-γGlu-C20 diacid])CNTATCATQRLAEFLRHSSPNFGAIPSSTNVGHNTY-NH2
modifications: disulfide 2-7; N-terminus assumed
SMILES: CC[C@H](C)[C@H](NC(=O)[C@H](C)NC(=O)CNC(=O)[C@H](Cc1ccccc1)NC(=O)[C@H](CC(N)=O)NC(=O)[C@@H]1CCCN1C(=O)[C@H](CO)NC(=O)[C@H](CO)NC(=O)[C@H](Cc1c[nH]cn1)NC(=O)[C@H](CCCNC(=N)N)NC(=O)[C@H](CC(C)C)NC(=O)[C@H](Cc1ccccc1)NC(=O)[C@H](CCC(=O)O)NC(=O)[C@H](C)NC(=O)[C@H](CC(C)C)NC(=O)[C@H](CCCNC(=N)N)NC(=O)[C@H](CCC(N)=O)NC(=O)[C@@H](NC(=O)[C@H](C)NC(=O)[C@@H]1CSSC[C@H](NC(=O)[C@@H](N)CCCCNC(=O)CC[C@H](NC(=O)CC[C@H](NC(=O)CCCCCCCCCCCCCCCCCCC(=O)O)C(=O)O)C(=O)O)C(=O)N[C@@H](CC(N)=O)C(=O)N[C@@H]([C@@H](C)O)C(=O)N[C@@H](C)C(=O)N[C@@H]([C@@H](C)O)C(=O)N1)[C@@H](C)O)C(=O)N1CCC[C@H]1C(=O)N[C@@H](CO)C(=O)N[C@@H](CO)C(=O)N[C@H](C(=O)N[C@@H](CC(N)=O)C(=O)N[C@H](C(=O)NCC(=O)N[C@@H](Cc1c[nH]cn1)C(=O)N[C@@H](CC(N)=O)C(=O)N[C@H](C(=O)N[C@@H](Cc1ccc(O)cc1)C(N)=O)[C@@H](C)O)C(C)C)[C@@H](C)O
notes: also called compound 87
B2: N^ε1-[2-[2-[2-(19-carboxynonadecanoylamino)ethoxy]ethoxy]acetyl]-[Arg17,Pro21,Pro27,His34]-h-amylin (peptide)
peptide: K([AEEA-C20 diacid])CNTATCATQRLANFLRHSSPNFGAIPSSTNVGHNTY-NH2
modifications: disulfide 2-7; N-terminus assumed
SMILES: CC[C@H](C)[C@H](NC(=O)[C@H](C)NC(=O)CNC(=O)[C@H](Cc1ccccc1)NC(=O)[C@H](CC(N)=O)NC(=O)[C@@H]1CCCN1C(=O)[C@H](CO)NC(=O)[C@H](CO)NC(=O)[C@H](Cc1c[nH]cn1)NC(=O)[C@H](CCCNC(=N)N)NC(=O)[C@H](CC(C)C)NC(=O)[C@H](Cc1ccccc1)NC(=O)[C@H](CC(N)=O)NC(=O)[C@H](C)NC(=O)[C@H](CC(C)C)NC(=O)[C@H](CCCNC(=N)N)NC(=O)[C@H](CCC(N)=O)NC(=O)[C@@H](NC(=O)[C@H](C)NC(=O)[C@@H]1CSSC[C@H](NC(=O)[C@@H](N)CCCCNC(=O)COCCOCCNC(=O)CCCCCCCCCCCCCCCCCCC(=O)O)C(=O)N[C@@H](CC(N)=O)C(=O)N[C@@H]([C@@H](C)O)C(=O)N[C@@H](C)C(=O)N[C@@H]([C@@H](C)O)C(=O)N1)[C@@H](C)O)C(=O)N1CCC[C@H]1C(=O)N[C@@H](CO)C(=O)N[C@@H](CO)C(=O)N[C@H](C(=O)N[C@@H](CC(N)=O)C(=O)N[C@H](C(=O)NCC(=O)N[C@@H](Cc1c[nH]cn1)C(=O)N[C@@H](CC(N)=O)C(=O)N[C@H](C(=O)N[C@@H](Cc1ccc(O)cc1)C(N)=O)[C@@H](C)O)C(C)C)[C@@H](C)O
notes: also called compound 91
B3: N^ε1-[2-[2-[2-[[2-[2-[2-[[(4S)-4-carboxy-4-(19-carboxynonadecanoylamino)butanoyl]amino]ethoxy]ethoxy]acetyl]amino]ethoxy]ethoxy]acetyl]-[Arg17,Pro21,Pro27,His34 … (peptide)
peptide: K([AEEA-AEEA-γGlu-C20 diacid])CNTATCATQRLANFLRHSSPNFGAIPSSTNVGHNTY-NH2
modifications: disulfide 2-7; N-terminus assumed
SMILES: CC[C@H](C)[C@H](NC(=O)[C@H](C)NC(=O)CNC(=O)[C@H](Cc1ccccc1)NC(=O)[C@H](CC(N)=O)NC(=O)[C@@H]1CCCN1C(=O)[C@H](CO)NC(=O)[C@H](CO)NC(=O)[C@H](Cc1c[nH]cn1)NC(=O)[C@H](CCCNC(=N)N)NC(=O)[C@H](CC(C)C)NC(=O)[C@H](Cc1ccccc1)NC(=O)[C@H](CC(N)=O)NC(=O)[C@H](C)NC(=O)[C@H](CC(C)C)NC(=O)[C@H](CCCNC(=N)N)NC(=O)[C@H](CCC(N)=O)NC(=O)[C@@H](NC(=O)[C@H](C)NC(=O)[C@@H]1CSSC[C@H](NC(=O)[C@@H](N)CCCCNC(=O)COCCOCCNC(=O)COCCOCCNC(=O)CC[C@H](NC(=O)CCCCCCCCCCCCCCCCCCC(=O)O)C(=O)O)C(=O)N[C@@H](CC(N)=O)C(=O)N[C@@H]([C@@H](C)O)C(=O)N[C@@H](C)C(=O)N[C@@H]([C@@H](C)O)C(=O)N1)[C@@H](C)O)C(=O)N1CCC[C@H]1C(=O)N[C@@H](CO)C(=O)N[C@@H](CO)C(=O)N[C@H](C(=O)N[C@@H](CC(N)=O)C(=O)N[C@H](C(=O)NCC(=O)N[C@@H](Cc1c[nH]cn1)C(=O)N[C@@H](CC(N)=O)C(=O)N[C@H](C(=O)N[C@@H](Cc1ccc(O)cc1)C(N)=O)[C@@H](C)O)C(C)C)[C@@H](C)O
notes: also called compound 97
B4: N^ε1-[2-[2-[2-[[2-[2-[2-[[(4S)-4-carboxy-4-(19-carboxynonadecanoylamino)butanoyl]amino]ethoxy]ethoxy]acetyl]amino]ethoxy]ethoxy]acetyl]-[Arg17,Pro21,Pro27,Arg34 … (peptide)
peptide: K([AEEA-AEEA-γGlu-C20 diacid])CNTATCATQRLANFLRHSSPNFGAIPSSTNVGRNTY-NH2
modifications: disulfide 2-7; N-terminus assumed
SMILES: CC[C@H](C)[C@H](NC(=O)[C@H](C)NC(=O)CNC(=O)[C@H](Cc1ccccc1)NC(=O)[C@H](CC(N)=O)NC(=O)[C@@H]1CCCN1C(=O)[C@H](CO)NC(=O)[C@H](CO)NC(=O)[C@H](Cc1c[nH]cn1)NC(=O)[C@H](CCCNC(=N)N)NC(=O)[C@H](CC(C)C)NC(=O)[C@H](Cc1ccccc1)NC(=O)[C@H](CC(N)=O)NC(=O)[C@H](C)NC(=O)[C@H](CC(C)C)NC(=O)[C@H](CCCNC(=N)N)NC(=O)[C@H](CCC(N)=O)NC(=O)[C@@H](NC(=O)[C@H](C)NC(=O)[C@@H]1CSSC[C@H](NC(=O)[C@@H](N)CCCCNC(=O)COCCOCCNC(=O)COCCOCCNC(=O)CC[C@H](NC(=O)CCCCCCCCCCCCCCCCCCC(=O)O)C(=O)O)C(=O)N[C@@H](CC(N)=O)C(=O)N[C@@H]([C@@H](C)O)C(=O)N[C@@H](C)C(=O)N[C@@H]([C@@H](C)O)C(=O)N1)[C@@H](C)O)C(=O)N1CCC[C@H]1C(=O)N[C@@H](CO)C(=O)N[C@@H](CO)C(=O)N[C@H](C(=O)N[C@@H](CC(N)=O)C(=O)N[C@H](C(=O)NCC(=O)N[C@@H](CCCNC(=N)N)C(=O)N[C@@H](CC(N)=O)C(=O)N[C@H](C(=O)N[C@@H](Cc1ccc(O)cc1)C(N)=O)[C@@H](C)O)C(C)C)[C@@H](C)O
notes: also called compound 95
B5: N^ε1-[2-[2-[2-(19-carboxynonadecanoylamino)ethoxy]ethoxy]acetyl]-[His14,Arg17,Pro21,Pro27]-h-amylin (peptide)
peptide: K([AEEA-C20 diacid])CNTATCATQRLAHFLRHSSPNFGAIPSSTNVGSNTY-NH2
modifications: disulfide 2-7; N-terminus assumed
SMILES: CC[C@H](C)[C@H](NC(=O)[C@H](C)NC(=O)CNC(=O)[C@H](Cc1ccccc1)NC(=O)[C@H](CC(N)=O)NC(=O)[C@@H]1CCCN1C(=O)[C@H](CO)NC(=O)[C@H](CO)NC(=O)[C@H](Cc1c[nH]cn1)NC(=O)[C@H](CCCNC(=N)N)NC(=O)[C@H](CC(C)C)NC(=O)[C@H](Cc1ccccc1)NC(=O)[C@H](Cc1c[nH]cn1)NC(=O)[C@H](C)NC(=O)[C@H](CC(C)C)NC(=O)[C@H](CCCNC(=N)N)NC(=O)[C@H](CCC(N)=O)NC(=O)[C@@H](NC(=O)[C@H](C)NC(=O)[C@@H]1CSSC[C@H](NC(=O)[C@@H](N)CCCCNC(=O)COCCOCCNC(=O)CCCCCCCCCCCCCCCCCCC(=O)O)C(=O)N[C@@H](CC(N)=O)C(=O)N[C@@H]([C@@H](C)O)C(=O)N[C@@H](C)C(=O)N[C@@H]([C@@H](C)O)C(=O)N1)[C@@H](C)O)C(=O)N1CCC[C@H]1C(=O)N[C@@H](CO)C(=O)N[C@@H](CO)C(=O)N[C@H](C(=O)N[C@@H](CC(N)=O)C(=O)N[C@H](C(=O)NCC(=O)N[C@@H](CO)C(=O)N[C@@H](CC(N)=O)C(=O)N[C@H](C(=O)N[C@@H](Cc1ccc(O)cc1)C(N)=O)[C@@H](C)O)C(C)C)[C@@H](C)O
notes: also called compound 90
B6: N^ε1-[2-[2-[2-[[2-[2-[2-[[(4S)-4-carboxy-4-(19-carboxynonadecanoylamino)butanoyl]amino]ethoxy]ethoxy]acetyl]amino]ethoxy]ethoxy]acetyl]-[Arg17,Pro21,Pro27,Pro31 … (peptide)
peptide: K([AEEA-AEEA-γGlu-C20 diacid])CNTATCATQRLANFLRHSSPNFGAIPSSTPVGSNTY-NH2
modifications: disulfide 2-7; N-terminus assumed
SMILES: CC[C@H](C)[C@H](NC(=O)[C@H](C)NC(=O)CNC(=O)[C@H](Cc1ccccc1)NC(=O)[C@H](CC(N)=O)NC(=O)[C@@H]1CCCN1C(=O)[C@H](CO)NC(=O)[C@H](CO)NC(=O)[C@H](Cc1c[nH]cn1)NC(=O)[C@H](CCCNC(=N)N)NC(=O)[C@H](CC(C)C)NC(=O)[C@H](Cc1ccccc1)NC(=O)[C@H](CC(N)=O)NC(=O)[C@H](C)NC(=O)[C@H](CC(C)C)NC(=O)[C@H](CCCNC(=N)N)NC(=O)[C@H](CCC(N)=O)NC(=O)[C@@H](NC(=O)[C@H](C)NC(=O)[C@@H]1CSSC[C@H](NC(=O)[C@@H](N)CCCCNC(=O)COCCOCCNC(=O)COCCOCCNC(=O)CC[C@H](NC(=O)CCCCCCCCCCCCCCCCCCC(=O)O)C(=O)O)C(=O)N[C@@H](CC(N)=O)C(=O)N[C@@H]([C@@H](C)O)C(=O)N[C@@H](C)C(=O)N[C@@H]([C@@H](C)O)C(=O)N1)[C@@H](C)O)C(=O)N1CCC[C@H]1C(=O)N[C@@H](CO)C(=O)N[C@@H](CO)C(=O)N[C@H](C(=O)N1CCC[C@H]1C(=O)N[C@H](C(=O)NCC(=O)N[C@@H](CO)C(=O)N[C@@H](CC(N)=O)C(=O)N[C@H](C(=O)N[C@@H](Cc1ccc(O)cc1)C(N)=O)[C@@H](C)O)C(C)C)[C@@H](C)O
notes: also called compound 96

Assays:
[1] = target: T1, human calcitonin receptor; assay: cell-based or functional assay
[2] = target: T2, human amylin 3(a) receptor (human …); assay: cell-based or functional assay

Binder | Ratio hCT/hAmylin funct. [1] | hCTR funct. EC50 [1] [nM] | hAmylin-R funct. EC50 [2] [nM]
B1 | 3.8 | 1.09 | 0.285
B2 | 36.9 | 1.48 | 0.04
B3 | 33 | 11.8 | 0.356
B4 | 33 | 21.5 | 0.651
B5 | 7.2 | 0.236 | 0.033
B6 | 21 | 3.8 | 0.181
